Measured values taken from article PMC12463132 (Advanced Science, 2025).
Ends that are not written are not given here.

Biological target: T1, Sec23a/Sec24a (lacking residues 1–340) (human, UniProt Q15436 1-765; O95486 341-1093)
T1 construct: Sec23a, human, full length (pFastBac1 vector); Sec24a, human, lacking residues 1-340; The results call the protein of the pull-downs 'Sec24a' or 'Sec24', the methods 'COPII protein'; also called COPII coat proteins Sec23a/Sec24a; COPII protein; source: Hi5 insect cells (baculovirus made in Sf9), purified (HisTrap, ion exchange, SEC)
Assay: pull-down; competition: phosphorylated GST-STING CTT on glutathione Sepharose 4B beads, IRF3 with Sec24; 20 mM HEPES-Na pH 7.4, 200 mM NaCl, 4 mM DTT, 0.1% Triton X-100, 4 °C; SDS-PAGE
Conditions: both partners purified

T1 sequence (Q15436 whole entry, chain 1 of 2, the tested form may be a part): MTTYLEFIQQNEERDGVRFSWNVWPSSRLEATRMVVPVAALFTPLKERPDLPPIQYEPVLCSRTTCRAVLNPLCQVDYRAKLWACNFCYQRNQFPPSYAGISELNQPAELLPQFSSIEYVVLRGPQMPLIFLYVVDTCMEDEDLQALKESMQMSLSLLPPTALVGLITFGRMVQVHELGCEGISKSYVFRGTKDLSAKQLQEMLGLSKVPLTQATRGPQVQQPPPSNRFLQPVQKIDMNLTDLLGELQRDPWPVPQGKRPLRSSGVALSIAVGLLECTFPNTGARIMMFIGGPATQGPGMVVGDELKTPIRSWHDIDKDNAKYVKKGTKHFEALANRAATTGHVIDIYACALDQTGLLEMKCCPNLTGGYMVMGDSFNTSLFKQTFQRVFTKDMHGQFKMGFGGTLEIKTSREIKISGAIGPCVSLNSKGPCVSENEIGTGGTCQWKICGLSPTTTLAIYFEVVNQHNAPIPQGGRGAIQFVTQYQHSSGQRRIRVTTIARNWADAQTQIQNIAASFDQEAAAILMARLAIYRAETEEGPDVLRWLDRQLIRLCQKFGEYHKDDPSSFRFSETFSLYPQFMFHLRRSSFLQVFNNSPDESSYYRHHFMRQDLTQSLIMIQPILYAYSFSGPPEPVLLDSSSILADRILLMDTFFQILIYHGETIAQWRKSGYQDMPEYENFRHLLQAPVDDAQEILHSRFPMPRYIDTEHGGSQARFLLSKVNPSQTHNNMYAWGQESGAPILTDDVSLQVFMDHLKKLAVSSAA
T1 sequence (O95486 341-1093, chain 2 of 2): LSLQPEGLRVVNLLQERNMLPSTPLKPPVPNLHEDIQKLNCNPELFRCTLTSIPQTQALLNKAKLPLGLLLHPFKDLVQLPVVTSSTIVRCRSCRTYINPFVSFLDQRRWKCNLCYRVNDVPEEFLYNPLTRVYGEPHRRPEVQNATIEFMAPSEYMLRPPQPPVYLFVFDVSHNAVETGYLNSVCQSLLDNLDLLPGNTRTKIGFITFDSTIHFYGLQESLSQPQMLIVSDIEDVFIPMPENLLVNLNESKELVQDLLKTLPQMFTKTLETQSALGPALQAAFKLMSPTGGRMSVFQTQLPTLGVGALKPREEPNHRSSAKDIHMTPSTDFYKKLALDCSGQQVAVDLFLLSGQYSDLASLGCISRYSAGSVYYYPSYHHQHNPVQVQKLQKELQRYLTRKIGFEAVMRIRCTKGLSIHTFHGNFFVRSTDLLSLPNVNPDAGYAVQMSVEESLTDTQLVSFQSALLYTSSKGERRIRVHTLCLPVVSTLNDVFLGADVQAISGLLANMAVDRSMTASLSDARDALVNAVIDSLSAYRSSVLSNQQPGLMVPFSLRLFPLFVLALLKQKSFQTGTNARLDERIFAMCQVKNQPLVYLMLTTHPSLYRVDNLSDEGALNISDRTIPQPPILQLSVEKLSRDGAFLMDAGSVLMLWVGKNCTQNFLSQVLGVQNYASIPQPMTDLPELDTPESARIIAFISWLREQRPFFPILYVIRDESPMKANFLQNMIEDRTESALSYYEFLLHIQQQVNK

binding result: binds
B1: GST‐tagged human STING CTT (residue number: 335–379), phosphorylated (domain or fragment, UniProt Q86WV6 335-379, looked up)
chain: QEEKEEVTVGSLKTSAVPSTSTMSQEPELLISGMEKPLPLRTDFS
modifications: also: GST-tagged, phosphorylated by TBK1, sites not given here
notes: STING, human, C-terminal tail, residues 335-379; also called phosphorylated STING CTT; phosphorylated GST‐STING protein; source: phosphorylated in vitro by GST-tagged human TBK1, used directly; not shown: GST, N-terminal, kept
